Measured values: article PMC12212259, “Evaluation of AlphaFold modeling for elucidation of nanobody–peptide epitope interactions” (The Journal of Biological Chemistry, 2025)

Assays:
127-tag peptide = molecular target: T1, 127-tag peptide (Homo sapiens CXCR2 (synthetic peptide)); assay: SPR; biotinylated Nb (1 uM) captured on a streptavidin (SA) chip to about 2000 RU; peptide as analyte, 50 ul/min, 60 s contact, 120 s dissociation; 1X PBS pH 7.4 plus 0.05% P20; Biacore T200; 1:1 kinetics binding model, local fittings; details: both partners purified
T1 construct: numbers count on: the peptide; the printed residues Ser1', Phe2', Glu3', Phe5', Trp6', Lys7', Asp10' fit this; source: synthetic peptide
T1 chain: SFEDFWKGED

6E-WT peptide [1] = molecular target: T2, 6E-WT peptide (Homo sapiens UBE2J1 (UBC6e; synthetic …, UniProt Q9Y385); assay: as above; details: both partners purified
T2 construct: Leu at position 9; numbers count on: the peptide; the printed E5 and L9 fit this; also called 6E-L9 (WT); 6E peptide; source: synthetic peptide
T2 chain: QADQEAKELARQIS

6E-WT peptide [2] = molecular target: T2, 6E-WT peptide; assay: flow cytometry on cells; competition: HEK293 cells stably expressing A2AR-Nb6E-ALFA with unlabeled variant 6E peptides (10–0.01 uM) and 10 nM FAM-6E-C14 for 30 m in 2% BSA in PBS; antifluorescein antibody-AF647; median fluorescence intensity; details: one partner purified

B1: Nb127–biotin (VHH)
VHH: EVQLVESGGGLVQAGESLRLSCAASGSTFDFKVMGWYRQPPGKQREGVAAIRLSGNMHYAESVKGRFAISKANAKNTVYLQMNSLRPEDTAVYYCKVNIRGQDYWGQGTQVTVSS
notes: as the chain of m1; Sortagging probably removes the His6 tag; also called biotinylated Nb127; source: bacterial expression (pET26b, pelB), purified; labelled by sortagging (Sortase 5M), Ni-NTA and PD10
Question: With B1 as the binder, how does the Kd (127-tag peptide) read?
Answer: Its Kd is 14 nM.

B2: Nb6E-biotin (VHH)
VHH: QVQLQESGGGLVQPGGSLRLSCAASGFVFENSAMAWYRQAPGKERELIAVIGTTFIKLAESVKGRFTISRDNAKSTVYLQMNNLKPEDTAVYYCSKSGAYWGQGTQVTVSS
notes: as the chain of m13; Sortagging probably removes the His6 tag; also called biotinylated Nb6E; source: bacterial expression (pET26b, pelB), purified; labelled by sortagging (Sortase 5M), Ni-NTA and PD10
Question: Does B2 bind (6E-WT peptide [1])?
Answer: Result: binds

B3: A2AR-Nb6E-ALFA (VHH)
VHH: B2 VHH
notes: as the chain of m13 (Nb6E); also called cell surface protein fused with Nb6E; source: HEK293 cells, stably expressing, on cells
Question: Does B3 bind (6E-WT peptide [2])?
Answer: Result: binds
